The values that follow come from paper PMC2967539.

The target of this experiment is human dipeptidyl peptidase IV (human) (UniProt P27487).
Chain of UniProt P27487 (P27487 whole entry): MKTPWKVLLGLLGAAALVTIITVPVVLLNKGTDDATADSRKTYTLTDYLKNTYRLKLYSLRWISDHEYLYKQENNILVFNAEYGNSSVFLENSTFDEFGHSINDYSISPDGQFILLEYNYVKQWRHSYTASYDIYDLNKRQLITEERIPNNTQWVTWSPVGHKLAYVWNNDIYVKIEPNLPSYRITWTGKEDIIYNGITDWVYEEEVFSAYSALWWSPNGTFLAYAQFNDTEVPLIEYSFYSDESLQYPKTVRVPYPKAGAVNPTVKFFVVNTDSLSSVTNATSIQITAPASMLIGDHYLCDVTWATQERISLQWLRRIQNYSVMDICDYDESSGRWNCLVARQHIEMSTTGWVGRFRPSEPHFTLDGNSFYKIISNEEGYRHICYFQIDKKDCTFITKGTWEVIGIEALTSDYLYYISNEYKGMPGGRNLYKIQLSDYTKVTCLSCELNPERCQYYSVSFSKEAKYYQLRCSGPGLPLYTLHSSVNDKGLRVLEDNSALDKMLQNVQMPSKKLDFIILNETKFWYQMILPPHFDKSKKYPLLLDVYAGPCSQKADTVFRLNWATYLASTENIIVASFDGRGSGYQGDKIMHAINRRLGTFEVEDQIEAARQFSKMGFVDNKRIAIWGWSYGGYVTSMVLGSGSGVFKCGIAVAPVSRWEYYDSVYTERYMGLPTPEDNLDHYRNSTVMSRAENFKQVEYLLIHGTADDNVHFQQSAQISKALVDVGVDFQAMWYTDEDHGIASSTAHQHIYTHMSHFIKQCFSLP

For the substance “Tat-1-86 protein (Immuno-Diagnostics) (from UniProt P04610 1-86) (natural protein)”, the cleavage of GLP1 (31.25 uM) by purified DPPIV (16 nM) in the presence of 1 uM Tat-1-86, MALDI-TOF mass spectrometry, after 5 min at 37 °C (all GLP1 cleaved within 5 min without Tat) was found to be 40%.
